Assay [1] concerns the target T1, endogenous CRF-R1 of primary rat anterior pituitary cells (rat, UniProt P35353 24-415).
T1 sequence (looked up): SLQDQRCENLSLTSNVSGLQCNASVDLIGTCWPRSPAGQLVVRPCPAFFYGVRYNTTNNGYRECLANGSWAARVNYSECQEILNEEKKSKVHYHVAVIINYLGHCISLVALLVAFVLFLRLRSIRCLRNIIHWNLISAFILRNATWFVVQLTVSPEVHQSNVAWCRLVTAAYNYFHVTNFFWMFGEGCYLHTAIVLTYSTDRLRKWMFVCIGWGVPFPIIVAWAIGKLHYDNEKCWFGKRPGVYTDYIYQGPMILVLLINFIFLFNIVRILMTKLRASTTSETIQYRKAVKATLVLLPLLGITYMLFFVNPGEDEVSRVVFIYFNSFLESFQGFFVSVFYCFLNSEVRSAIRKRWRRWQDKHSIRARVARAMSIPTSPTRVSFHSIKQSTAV
Briefly: cell-based or functional assay.

Assay [2] addresses T2, human CRF receptor type 1 (human, UniProt P34998 24-415).
T2 sequence (looked up): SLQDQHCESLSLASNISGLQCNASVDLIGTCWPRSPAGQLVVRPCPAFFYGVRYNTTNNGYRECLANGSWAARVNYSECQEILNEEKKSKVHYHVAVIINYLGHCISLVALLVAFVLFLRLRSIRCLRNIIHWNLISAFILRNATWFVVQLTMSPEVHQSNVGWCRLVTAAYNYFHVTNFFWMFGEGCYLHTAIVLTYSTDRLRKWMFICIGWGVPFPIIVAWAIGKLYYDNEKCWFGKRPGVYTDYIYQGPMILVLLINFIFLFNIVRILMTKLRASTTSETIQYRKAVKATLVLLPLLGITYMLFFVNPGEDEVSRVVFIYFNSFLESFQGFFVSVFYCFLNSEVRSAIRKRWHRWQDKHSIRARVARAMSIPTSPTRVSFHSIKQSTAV
In words: cell-based or functional assay.

Where no end group is shown, it is not given here.

Results on five molecules are retold here after patent US20040143095A1 (RESEARCH DEVELOPMENT FOUNDATION, published 2004).

Consider DDPPLSIDLTFHLLRTLLELARTQSQRERAEQNRIIFDSV (peptide, UniProt P55090 81-120, looked up) [Urocortin (rat)], for which the “cAMP accumulation in primary rat anterior pituitary cells, EC50” value in assay [1] amounted to 2.3 nM. On to FTLSLDVPTNIMNLLFNIAKAKNLRAQAAANAHLMAQI-NH2 [Urocortin III (human)], for which the “cAMP in CHO cells stably expressing hCRF-R1 (EC50, nM)” value in assay [2] was more than 100 nM. With IVLSLDVPIGLLQILLEQARARAAREQATTNARILARV (peptide, UniProt Q96RP3 72-109, looked up) [Urocortin II (human)], the “cAMP in CHO cells stably expressing hCRF-R1 (EC50, nM)” value in assay [2] is more than 100 nM. The same measure, in the same setting: the same measure for VILSLDVPIGLLRILLEQARYKAARNQAATNAQILAHV (peptide, UniProt Q99ML8 73-110, looked up) [Urocortin II (mouse)]: more than 100 nM. The same measure, in the same setting: the figure for FTLSLDVPTNIMNILFNIDKAKNLRAKAAANAQLMAQI-NH2 [Urocortin III (mouse)] is more than 100 nM.
